Data from paper PMC3252399.

T1: Ndc10 full-length (Kluyveromyces lactis, UniProt Q6CPM4 1-736)
T1 sequence: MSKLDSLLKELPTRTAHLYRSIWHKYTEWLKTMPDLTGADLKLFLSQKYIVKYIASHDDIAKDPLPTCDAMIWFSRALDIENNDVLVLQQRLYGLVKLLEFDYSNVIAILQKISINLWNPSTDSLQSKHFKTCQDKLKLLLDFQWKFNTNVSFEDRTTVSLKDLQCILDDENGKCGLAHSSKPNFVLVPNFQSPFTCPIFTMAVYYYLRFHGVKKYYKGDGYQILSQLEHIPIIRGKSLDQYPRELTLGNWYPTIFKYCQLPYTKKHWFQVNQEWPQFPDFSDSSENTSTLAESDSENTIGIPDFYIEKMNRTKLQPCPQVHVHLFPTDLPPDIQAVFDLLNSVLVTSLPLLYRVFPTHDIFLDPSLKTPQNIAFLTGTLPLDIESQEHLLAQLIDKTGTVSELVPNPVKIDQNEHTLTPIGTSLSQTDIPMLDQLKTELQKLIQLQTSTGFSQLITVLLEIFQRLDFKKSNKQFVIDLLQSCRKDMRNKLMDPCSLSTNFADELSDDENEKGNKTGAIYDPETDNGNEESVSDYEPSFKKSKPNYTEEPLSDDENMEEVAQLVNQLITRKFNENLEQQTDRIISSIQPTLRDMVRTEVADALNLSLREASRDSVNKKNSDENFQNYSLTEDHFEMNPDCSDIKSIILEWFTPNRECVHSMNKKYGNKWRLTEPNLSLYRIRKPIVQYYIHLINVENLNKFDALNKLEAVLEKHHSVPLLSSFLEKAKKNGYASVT

T2: Ndc10 DI-II (Kluyveromyces lactis, UniProt Q6CPM4 1-403)
T2 sequence: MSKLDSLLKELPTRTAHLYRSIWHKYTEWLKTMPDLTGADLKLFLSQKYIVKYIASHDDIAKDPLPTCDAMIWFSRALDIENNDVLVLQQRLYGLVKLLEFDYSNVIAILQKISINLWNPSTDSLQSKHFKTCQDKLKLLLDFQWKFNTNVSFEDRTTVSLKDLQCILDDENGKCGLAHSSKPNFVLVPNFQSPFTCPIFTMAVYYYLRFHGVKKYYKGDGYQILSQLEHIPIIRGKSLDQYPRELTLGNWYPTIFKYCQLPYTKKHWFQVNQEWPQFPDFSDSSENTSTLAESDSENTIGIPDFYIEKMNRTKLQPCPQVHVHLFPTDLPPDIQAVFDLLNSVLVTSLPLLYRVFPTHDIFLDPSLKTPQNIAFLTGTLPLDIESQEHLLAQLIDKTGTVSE

T3: Ndc10 DV (Kluyveromyces lactis, UniProt Q6CPM4 631-736)
T3 sequence: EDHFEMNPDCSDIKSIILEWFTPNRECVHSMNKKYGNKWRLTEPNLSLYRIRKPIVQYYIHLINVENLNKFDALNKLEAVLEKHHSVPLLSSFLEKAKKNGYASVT

T4: Ndc10 DI-III (Kluyveromyces lactis, UniProt Q6CPM4 1-534)
T4 sequence: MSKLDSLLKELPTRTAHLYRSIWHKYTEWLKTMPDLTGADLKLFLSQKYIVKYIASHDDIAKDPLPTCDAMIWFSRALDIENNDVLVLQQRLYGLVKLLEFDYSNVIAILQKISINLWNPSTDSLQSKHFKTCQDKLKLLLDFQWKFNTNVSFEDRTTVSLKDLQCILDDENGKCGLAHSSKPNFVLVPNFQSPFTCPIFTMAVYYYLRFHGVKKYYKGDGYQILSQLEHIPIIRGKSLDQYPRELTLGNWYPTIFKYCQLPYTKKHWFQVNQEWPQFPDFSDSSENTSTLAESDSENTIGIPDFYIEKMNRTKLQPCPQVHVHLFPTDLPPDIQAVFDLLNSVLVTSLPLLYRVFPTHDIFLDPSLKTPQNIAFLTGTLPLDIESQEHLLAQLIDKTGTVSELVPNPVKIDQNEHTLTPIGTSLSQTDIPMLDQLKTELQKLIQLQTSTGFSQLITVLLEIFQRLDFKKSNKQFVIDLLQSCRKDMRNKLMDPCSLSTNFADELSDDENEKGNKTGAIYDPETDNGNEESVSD


Tests used:
[1] = target: K. lactis Ndc10 DI–III (residues 1–534), purified (Kluyveromyces lactis); test: AUC
Ndc10 full-length = target: T1, Ndc10 full-length; test: fluorescence anisotropy
Ndc10 DI-II = target: T2, Ndc10 DI-II; test: ITC
Ndc10 DV = target: T3, Ndc10 DV; test: EMSA
Ndc10 DI-III = target: T4, Ndc10 DI-III; test: EMSA

| stoichiometry N [1] | Molecule | binding result (Ndc10 full-length) | binding result (Ndc10 DI-II) | binding result (Ndc10 DV) | binding result (Ndc10 DI-III) |
| --- | --- | --- | --- | --- | --- |
| 2 | K. lactis Ndc10 DI–III (residues 1–534), purified (domain or fragment) | – | – | – | – |
| – | 30 bp CEN1 CDEIII (dsDNA) DNA 1: TGCTTTATGTTTCCGAAAATTATTTTATTA DNA 2: TAATAAAATAATTTTCGGAAACATAAAGCA | binds | binds | no binding | binds |
